Experimental findings from the Human Domainome abundance scans (Beltran et al. 2025) are described below.

B1: CD2-associated protein, residues 271 to 331; numbered along this chain, Q9Y5K6 (parent)
chain: KEYCRTLFAYEGTNEDELTFKEGEIIHLISKETGEAGWWRGELNGKEGVFPDNFAVQINEL

± gives the uncertainty stated by the source.

In this series the parent is B1. Nature of the series: abundance fitness (aPCA) (normalised: wild type 0, dead -1); higher = more abundant; growth selection in yeast, the domain comes from the species named. The note with it: Homo sapiens.
As to KEYCRTLFAYEGTNEDELTFKEGEIIHLISKVTGEAGWWRGELNGKEGVFPDNFAVQINEL [E32V], the abundance fitness was -0.152 ± 0.049.
Next, KEYCRTLFAYEGTNEDELTFKEGEIIHLISKYTGEAGWWRGELNGKEGVFPDNFAVQINEL [E32Y]: -0.167 ± 0.053; KEYCRTLFAYEGTNEDELTFKEGEIIHLISKRTGEAGWWRGELNGKEGVFPDNFAVQINEL [E32R]: -0.222 ± 0.049; KEYCRTLFAYEGTNEDELTFKEGEIIHLISKWTGEAGWWRGELNGKEGVFPDNFAVQINEL [E32W]: -0.116 ± 0.07.
On to KEYCRTLFAYEGTNEDELTFKEGEIIHLISKTTGEAGWWRGELNGKEGVFPDNFAVQINEL [E32T], for which the abundance fitness is -0.111 ± 0.05.
With KEYCRTLFAYEGTNEDELTFKEGEIIHLISKGTGEAGWWRGELNGKEGVFPDNFAVQINEL [E32G], the abundance fitness is -0.261 ± 0.057.
For KEYCRTLFAYEGTNEDELTFKEGEIIHLISKQTGEAGWWRGELNGKEGVFPDNFAVQINEL [E32Q], the abundance fitness is -0.139 ± 0.058.
Next, KEYCRTLFAYEGTNEDELTFKEGEIIHLISKKTGEAGWWRGELNGKEGVFPDNFAVQINEL [E32K]: -0.044 ± 0.07; KEYCRTLFAYEGTNEDELTFKEGEIIHLISKITGEAGWWRGELNGKEGVFPDNFAVQINEL [E32I]: -0.18 ± 0.072; KEYCRTLFAYEGTNEDELTFKEGEIIHLISKPTGEAGWWRGELNGKEGVFPDNFAVQINEL [E32P]: -0.553 ± 0.072.
Next, KEYCRTLFAYEGTNEDELTFKEGEIIHLISKDTGEAGWWRGELNGKEGVFPDNFAVQINEL [E32D]: -0.003 ± 0.062; KEYCRTLFAYEGTNEDELTFKEGEIIHLISKMTGEAGWWRGELNGKEGVFPDNFAVQINEL [E32M]: -0.307 ± 0.076; KEYCRTLFAYEGTNEDELTFKEGEIIHLISKSTGEAGWWRGELNGKEGVFPDNFAVQINEL [E32S]: -0.091 ± 0.039.
In the case of KEYCRTLFAYEGTNEDELTFKEGEIIHLISKCTGEAGWWRGELNGKEGVFPDNFAVQINEL [E32C] it was -0.164 ± 0.048; in that of KEYCRTLFAYEGTNEDELTFKEGEIIHLISKHTGEAGWWRGELNGKEGVFPDNFAVQINEL [E32H], -0.202 ± 0.049.
As to KEYCRTLFAYEGTNEDELTFKEGEIIHLISKNTGEAGWWRGELNGKEGVFPDNFAVQINEL [E32N], the abundance fitness worked out at 0.085 ± 0.064.
In the case of KEYCRTLFAYEGTNEDELTFKEGEIIHLISKLTGEAGWWRGELNGKEGVFPDNFAVQINEL [E32L] it was -0.481 ± 0.048; in that of KEYCRTLFAYEGTNEDELTFKEGEIIHLISKESGEAGWWRGELNGKEGVFPDNFAVQINEL [T33S], -0.097 ± 0.063.
In the case of KEYCRTLFAYEGTNEDELTFKEGEIIHLISKEPGEAGWWRGELNGKEGVFPDNFAVQINEL [T33P] it was -0.242 ± 0.083; in that of KEYCRTLFAYEGTNEDELTFKEGEIIHLISKEYGEAGWWRGELNGKEGVFPDNFAVQINEL [T33Y], -0.222 ± 0.1.
Regarding KEYCRTLFAYEGTNEDELTFKEGEIIHLISKERGEAGWWRGELNGKEGVFPDNFAVQINEL [T33R], the abundance fitness was -0.473 ± 0.045.
With KEYCRTLFAYEGTNEDELTFKEGEIIHLISKEWGEAGWWRGELNGKEGVFPDNFAVQINEL [T33W], the abundance fitness is -0.331 ± 0.057.
In the case of KEYCRTLFAYEGTNEDELTFKEGEIIHLISKEHGEAGWWRGELNGKEGVFPDNFAVQINEL [T33H] it was -0.209 ± 0.12; in that of KEYCRTLFAYEGTNEDELTFKEGEIIHLISKEIGEAGWWRGELNGKEGVFPDNFAVQINEL [T33I], -0.099 ± 0.14.
KEYCRTLFAYEGTNEDELTFKEGEIIHLISKEDGEAGWWRGELNGKEGVFPDNFAVQINEL [T33D]: the abundance fitness was -0.282 ± 0.12.
Take KEYCRTLFAYEGTNEDELTFKEGEIIHLISKEQGEAGWWRGELNGKEGVFPDNFAVQINEL [T33Q]: the abundance fitness was -0.451 ± 0.09.
Turning to KEYCRTLFAYEGTNEDELTFKEGEIIHLISKELGEAGWWRGELNGKEGVFPDNFAVQINEL [T33L], the abundance fitness was -0.349 ± 0.061.
On to KEYCRTLFAYEGTNEDELTFKEGEIIHLISKEEGEAGWWRGELNGKEGVFPDNFAVQINEL [T33E], for which the abundance fitness was -0.471 ± 0.085.
Take KEYCRTLFAYEGTNEDELTFKEGEIIHLISKEFGEAGWWRGELNGKEGVFPDNFAVQINEL [T33F]: the abundance fitness is -0.32 ± 0.13.
As for KEYCRTLFAYEGTNEDELTFKEGEIIHLISKEMGEAGWWRGELNGKEGVFPDNFAVQINEL [T33M], the abundance fitness was -0.468 ± 0.096.
As for KEYCRTLFAYEGTNEDELTFKEGEIIHLISKEAGEAGWWRGELNGKEGVFPDNFAVQINEL [T33A], the abundance fitness was -0.198 ± 0.083.
Consider KEYCRTLFAYEGTNEDELTFKEGEIIHLISKEVGEAGWWRGELNGKEGVFPDNFAVQINEL [T33V], for which the abundance fitness was -0.129 ± 0.064.
In the case of KEYCRTLFAYEGTNEDELTFKEGEIIHLISKECGEAGWWRGELNGKEGVFPDNFAVQINEL [T33C] it was -0.163 ± 0.11.
In the case of KEYCRTLFAYEGTNEDELTFKEGEIIHLISKEKGEAGWWRGELNGKEGVFPDNFAVQINEL [T33K] it was -0.332 ± 0.1; in that of KEYCRTLFAYEGTNEDELTFKEGEIIHLISKENGEAGWWRGELNGKEGVFPDNFAVQINEL [T33N], -0.333 ± 0.16.
Take KEYCRTLFAYEGTNEDELTFKEGEIIHLISKEGGEAGWWRGELNGKEGVFPDNFAVQINEL [T33G]: the abundance fitness was -0.076 ± 0.056.
For KEYCRTLFAYEGTNEDELTFKEGEIIHLISKETGLAGWWRGELNGKEGVFPDNFAVQINEL [E35L], the abundance fitness was -0.035 ± 0.052.
Turning to KEYCRTLFAYEGTNEDELTFKEGEIIHLISKETGSAGWWRGELNGKEGVFPDNFAVQINEL [E35S], the abundance fitness is 0.034 ± 0.07.
Next, KEYCRTLFAYEGTNEDELTFKEGEIIHLISKETGYAGWWRGELNGKEGVFPDNFAVQINEL [E35Y]: 0.055 ± 0.13.
With KEYCRTLFAYEGTNEDELTFKEGEIIHLISKETGVAGWWRGELNGKEGVFPDNFAVQINEL [E35V], the abundance fitness stood at 0.032 ± 0.099.
For KEYCRTLFAYEGTNEDELTFKEGEIIHLISKETGDAGWWRGELNGKEGVFPDNFAVQINEL [E35D], the abundance fitness was determined as 0.02 ± 0.12.
In the case of KEYCRTLFAYEGTNEDELTFKEGEIIHLISKETGGAGWWRGELNGKEGVFPDNFAVQINEL [E35G] it was -0.125 ± 0.13; in that of KEYCRTLFAYEGTNEDELTFKEGEIIHLISKETGWAGWWRGELNGKEGVFPDNFAVQINEL [E35W], -0.358 ± 0.11.
